According to patent publication US20240409617A1 (published 2024):
Residue numbers refer to the chain shown, from its start. Read-outs that look alike come from different tables or passages of the source.

B1: Ab 5 (Fc fusion)
VH: QVQLVQSGGGVVQPGRSLRLSCAASGFTFTTYGMHWVRQAPGKGLEWVAVISYDGSIKNYADFVEGRFTISRDNSKNTLYLQMNSLRPEDTGVYYCARVGDSSSYYGIDAWGQGTLVTVSS
VL: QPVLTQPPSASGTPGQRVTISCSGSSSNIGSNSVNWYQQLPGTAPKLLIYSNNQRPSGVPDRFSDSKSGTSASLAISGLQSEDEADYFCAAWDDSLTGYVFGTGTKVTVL
B2: Ab 15 (Fc fusion)
VH: QVQLVQSGGGLVKPGRSLRLSCTASGFTFGDYAMSWFRQAPGKGLEWVGFIRSKAYGGTTGYAASVKGRFTISRDDSKSIAYLQMNSLKTEDTAVYYCTTADDDMDVWGKGTTVTVSS
VL: NFMLTQPHSVSESPGKTVTISCTRSSGTIASNYVQWYQQRPGSAPTTVIYEDNQRPSGVPDRFSGSIDRSSNSASLTISGLTPDDEADYYCQSYDTSNHYVFGTGTKVTVL
B3: Ab 27 (Fc fusion)
VH: QVQLVQSGTEVKKPGASVKVSCKASGYSFTGSHLHWVRQAPGQGLEWMGWINPDSGVINYAQKFQGRVTLTRDTSISTAYMELSGLRSDDTAVYYCARDKAIGYVWALDYWGQGTLVTVSS
VL: QSALTQPPSVSGSPGQSVTISCTGTSSDVGTYNRVSWYQQPPGKAPKLMIYEVSNRPSGVSNRFSGSKSGNTASLTISGLQAEDEADYYCSSYTRTFTYVFGTGTKVTVL
B4: Ab 25 (Fc fusion)
VH: QVQLVQSGGGLVQPGGSLRLSCAASGFTFSSYWMSWVRQAPGKGLEWVANIKQDGSEKYYVDSVKGRFTISRDNAKNSLYLQMNSLRAEDTAVYYCARGFYYYGAFDIWGQGTTVTVSS
VL: NFMLTQPHSVSESPGKTVTISCTGSSGSIASNYVQWYQQRPGSAPTTVIYEDNQRPSGVPDRFSGSIGSSSNSASLTISGLKTEDEADYYCQSYDSSNHWVFGGGTKLTVL
B5: Ab set2-7 (Fc fusion)
chain 1: QVTLKESGPTRVKPTQTLTLTCTFSGFSLSTTGVGVGWIRQPPGKALEWLALIYWNDDKRYSPSLKSRLTITKDTSKNQVVLTMTNMDPVDTATYYCARISGSGYFYPFDIWGQGTTVTVSS
chain 2: B4 VL with G24R, A44S, G68D, T83A, N98S, H99L
B6: Ab 2-7 (Fc fusion)
chain 1: B5 chain 1
chain 2: B4 VL with G24R, A44S, G68D, T83A, N98S, H99L
B7: Ab 30 (Fc fusion)
VH: QVQLVQSGGGVVQPGKSLRLSCTASGFTFSDFPIHWVRQAPGKGLEWVGVISYDGNIKYYGDSVKGRFTISRDNAKNSLYLQMNSLRVEDTAVYYCARGGSSFDIWGQGTTVTVSS
VL: SYELTQPPSVSEAPRQRVTISCSGSTSNIGNNAVSWYQHLPGKAPKLLIYYNERLPSGVSDRFSGSKSGTSASLAISGLRSEDEADYYCAAWDDSLSGHVVFGGGTKLTVL
B8: Ab 23 (Fc fusion)
VH: EVQLVQSGAEVKKPGSSVKVSCRSSGGTFSTYGITWVRQAPGQGLEWMGRIIPSLGIPNYAQKFQGRVTITADTSVSTAWMELSSLESDDTAIYYCARENIDLATNDFWGQGTLVTVSS
VL: QSALTQPPSASGSPGQSVTISCTGTSRDIGAYGYVSWYQQVPGKAPKLIIYEVRNRPSGVSSRFSGSKSGNTASLTISGLQAEDEADYYCSSYTSSSTLDVVFGGGTKLTVL

Assays:
Test in all cases: BLI
[1] = molecular target: S1
[2] = molecular target: S1-biotin(ACRO)
[3] = molecular target: S1; remark: listed apart in the source
[4] = molecular target: S1; remark: listed apart in the source
[5] = molecular target: S1; remark: listed apart in the source

| Binder | Kd [1] [nM] | Kd [2] [nM] | Kd [3] [nM] | Kd [4] [nM] | Kd [5] [nM] |
| --- | --- | --- | --- | --- | --- |
| B1 | < 0.001 |  |  |  |  |
| B2 | 0.033 | 0.033 |  |  |  |
| B3 | < 0.001 | < 0.001 |  |  |  |
| B4 | 10.1 | 10.1 |  |  |  |
| B5 |  |  | < 0.001 | < 0.001 |  |
| B6 | < 0.001 |  |  |  | < 0.001 |
| B7 | 0.314 |  |  |  |  |
| B8 | 0.338 | 0.338 |  |  |  |
